Assay [1] deals with T1, formyl peptide receptor 2 (FPR2) (UniProt P25090 1-351, limits assumed).
T1 sequence (looked up): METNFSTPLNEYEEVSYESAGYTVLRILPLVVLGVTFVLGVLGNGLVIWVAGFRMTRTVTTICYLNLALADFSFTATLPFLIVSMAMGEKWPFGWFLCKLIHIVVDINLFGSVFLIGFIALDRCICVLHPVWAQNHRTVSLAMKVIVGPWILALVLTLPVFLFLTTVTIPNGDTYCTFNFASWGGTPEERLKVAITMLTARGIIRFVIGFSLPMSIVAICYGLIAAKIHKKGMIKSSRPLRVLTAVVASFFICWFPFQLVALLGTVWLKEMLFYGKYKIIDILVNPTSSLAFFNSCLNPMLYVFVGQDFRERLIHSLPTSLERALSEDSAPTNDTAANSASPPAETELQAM
The assay is described as follows: cell-based or functional assay.

For a further assay, the target named is T2, FPR1 (UniProt P21462 1-350, limits assumed).
T2 sequence (looked up): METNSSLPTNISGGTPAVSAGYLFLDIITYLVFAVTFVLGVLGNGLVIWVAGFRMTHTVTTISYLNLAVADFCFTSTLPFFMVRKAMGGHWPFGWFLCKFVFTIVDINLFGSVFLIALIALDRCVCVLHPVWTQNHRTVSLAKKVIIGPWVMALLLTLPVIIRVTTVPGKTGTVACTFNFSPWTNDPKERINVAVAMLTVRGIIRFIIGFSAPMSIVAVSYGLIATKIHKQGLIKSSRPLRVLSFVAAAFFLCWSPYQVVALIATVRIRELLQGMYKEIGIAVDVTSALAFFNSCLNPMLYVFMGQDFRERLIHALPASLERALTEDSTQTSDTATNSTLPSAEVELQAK
The assay is described as follows: cell-based or functional assay.

B1: peptide of SEQ ID NO 83 (peptide)
peptide: RMRYWYM
HELM: PEPTIDE1{[CCCC(=O)[*:2]].R.M.R.Y.W.Y.[dM].[am]}$$$$V2.0
SMILES: CCCC(=O)N[C@@H](CCCNC(=N)N)C(=O)N[C@@H](CCSC)C(=O)N[C@@H](CCCNC(=N)N)C(=O)N[C@@H](Cc1ccc(O)cc1)C(=O)N[C@@H](Cc1c[nH]c2ccccc12)C(=O)N[C@@H](Cc1ccc(O)cc1)C(=O)N[C@H](CCSC)C(N)=O
Consider B1, for which the “EC50 for [Ca2+]” value in assay [1] was less than 0.01 µM; in the assay with FPR1, greater than 10 µM.

B2: peptide of SEQ ID NO 82 (peptide)
peptide: RMRYWYM
HELM: PEPTIDE1{[ac].R.M.R.Y.W.Y.[dM].[am]}$$$$V2.0
SMILES: CSCC[C@H](NC(=O)[C@H](CCCNC(=N)N)NC(C)=O)C(=O)N[C@@H](CCCNC(=N)N)C(=O)N[C@@H](Cc1ccc(O)cc1)C(=O)N[C@@H](Cc1c[nH]c2ccccc12)C(=O)N[C@@H](Cc1ccc(O)cc1)C(=O)N[C@H](CCSC)C(N)=O
As to B2, the “EC50 for [Ca2+]” value in assay [1] is less than 0.01 µM; with FPR1, greater than 10 µM.

B3: peptide of SEQ ID NO 13 (peptide)
peptide: MRYKVM
HELM: PEPTIDE1{M.R.Y.K.V.[dM].[am]}$$$$V2.0; N-terminus assumed
SMILES: CSCC[C@H](N)C(=O)N[C@@H](CCCNC(=N)N)C(=O)N[C@@H](Cc1ccc(O)cc1)C(=O)N[C@@H](CCCCN)C(=O)N[C@H](C(=O)N[C@H](CCSC)C(N)=O)C(C)C
As to B3, the figures for the “EC50 for [Ca2+]” value (in assay [1]; with FPR1) were less than 0.01 µM and greater than 10 µM, respectively.

B4: peptide of SEQ ID NO 89 (peptide)
peptide: MKYWYM
HELM: PEPTIDE1{M.K.Y.W.Y.[dM].[am]}$$$$V2.0; N-terminus assumed
SMILES: CSCC[C@H](N)C(=O)N[C@@H](CCCCN)C(=O)N[C@@H](Cc1ccc(O)cc1)C(=O)N[C@@H](Cc1c[nH]c2ccccc12)C(=O)N[C@@H](Cc1ccc(O)cc1)C(=O)N[C@H](CCSC)C(N)=O
With B4, the “EC50 for [Ca2+]” value in assay [1] is less than 0.01 µM; with FPR1, greater than 10 µM.

B5: peptide of SEQ ID NO 74 (peptide)
peptide: RWRYKPM
HELM: PEPTIDE1{R.W.R.Y.K.P.[dM].[am]}$$$$V2.0; N-terminus assumed
SMILES: CSCC[C@@H](NC(=O)[C@@H]1CCCN1C(=O)[C@H](CCCCN)NC(=O)[C@H](Cc1ccc(O)cc1)NC(=O)[C@H](CCCNC(=N)N)NC(=O)[C@H](Cc1c[nH]c2ccccc12)NC(=O)[C@@H](N)CCCNC(=N)N)C(N)=O
As to B5, the “EC50 for [Ca2+]” value in assay [1] was less than 0.01 µM; with FPR1, greater than 10 µM.

B6: peptide of SEQ ID NO 87 (peptide)
peptide: MRYWYM
HELM: PEPTIDE1{[CCCC(=O)[*:2]].M.R.Y.W.Y.[dM].[am]}$$$$V2.0
SMILES: CCCC(=O)N[C@@H](CCSC)C(=O)N[C@@H](CCCNC(=N)N)C(=O)N[C@@H](Cc1ccc(O)cc1)C(=O)N[C@@H](Cc1c[nH]c2ccccc12)C(=O)N[C@@H](Cc1ccc(O)cc1)C(=O)N[C@H](CCSC)C(N)=O
Regarding B6, the “EC50 for [Ca2+]” value in assay [1] is less than 0.01 µM; in the assay with FPR1, greater than 10 µM.

B7: peptide of SEQ ID NO 78 (peptide)
peptide: RWRYWYM
HELM: PEPTIDE1{[ac].R.W.R.Y.W.Y.[dM].[am]}$$$$V2.0
SMILES: CSCC[C@@H](NC(=O)[C@H](Cc1ccc(O)cc1)NC(=O)[C@H](Cc1c[nH]c2ccccc12)NC(=O)[C@H](Cc1ccc(O)cc1)NC(=O)[C@H](CCCNC(=N)N)NC(=O)[C@H](Cc1c[nH]c2ccccc12)NC(=O)[C@H](CCCNC(=N)N)NC(C)=O)C(N)=O
Take B7: the “EC50 for [Ca2+]” value was less than 0.01 µM in assay [1] and greater than 10 µM with FPR1.

B8: peptide of SEQ ID NO 70 (peptide)
peptide: MKYKPM
HELM: PEPTIDE1{M.K.Y.K.P.[dM].[am]}$$$$V2.0; N-terminus assumed
SMILES: CSCC[C@H](N)C(=O)N[C@@H](CCCCN)C(=O)N[C@@H](Cc1ccc(O)cc1)C(=O)N[C@@H](CCCCN)C(=O)N1CCC[C@H]1C(=O)N[C@H](CCSC)C(N)=O
As to B8, the “EC50 for [Ca2+]” value in assay [1] is less than 0.01 µM; with FPR1, greater than 10 µM.

B9: peptide of SEQ ID NO 11 (peptide)
peptide: KMKYKVM
HELM: PEPTIDE1{[CCCC(=O)[*:2]].K.M.K.Y.K.V.[dM].[am]}$$$$V2.0
SMILES: CCCC(=O)N[C@@H](CCCCN)C(=O)N[C@@H](CCSC)C(=O)N[C@@H](CCCCN)C(=O)N[C@@H](Cc1ccc(O)cc1)C(=O)N[C@@H](CCCCN)C(=O)N[C@H](C(=O)N[C@H](CCSC)C(N)=O)C(C)C
Take B9: the “EC50 for [Ca2+]” value in assay [1] was less than 0.01 µM; in the assay with FPR1 it was greater than 10 µM.

B10: peptide of SEQ ID NO 68 (peptide)
peptide: KMKYKPM
HELM: PEPTIDE1{[CCCC(=O)[*:2]].K.M.K.Y.K.P.[dM].[am]}$$$$V2.0
SMILES: CCCC(=O)N[C@@H](CCCCN)C(=O)N[C@@H](CCSC)C(=O)N[C@@H](CCCCN)C(=O)N[C@@H](Cc1ccc(O)cc1)C(=O)N[C@@H](CCCCN)C(=O)N1CCC[C@H]1C(=O)N[C@H](CCSC)C(N)=O
As for B10, the “EC50 for [Ca2+]” value in assay [1] was less than 0.01 µM; with FPR1, greater than 10 µM.

B11: peptide of SEQ ID NO 86 (peptide)
peptide: MRYWYM
HELM: PEPTIDE1{[ac].M.R.Y.W.Y.[dM].[am]}$$$$V2.0
SMILES: CSCC[C@H](NC(C)=O)C(=O)N[C@@H](CCCNC(=N)N)C(=O)N[C@@H](Cc1ccc(O)cc1)C(=O)N[C@@H](Cc1c[nH]c2ccccc12)C(=O)N[C@@H](Cc1ccc(O)cc1)C(=O)N[C@H](CCSC)C(N)=O
Consider B11, for which the entries for the “EC50 for [Ca2+]” value (in assay [1]; in the assay with FPR1) were less than 0.01 µM and greater than 10 µM, respectively.

B12: peptide of SEQ ID NO 81 (peptide)
peptide: RMRYWYM
HELM: PEPTIDE1{R.M.R.Y.W.Y.[dM].[am]}$$$$V2.0; N-terminus assumed
SMILES: CSCC[C@H](NC(=O)[C@@H](N)CCCNC(=N)N)C(=O)N[C@@H](CCCNC(=N)N)C(=O)N[C@@H](Cc1ccc(O)cc1)C(=O)N[C@@H](Cc1c[nH]c2ccccc12)C(=O)N[C@@H](Cc1ccc(O)cc1)C(=O)N[C@H](CCSC)C(N)=O
On to B12, for which the “EC50 for [Ca2+]” value in assay [1] was less than 0.01 µM; in the assay with FPR1, greater than 10 µM.

B13: peptide of SEQ ID NO 80 (peptide)
peptide: KWKYWYM
HELM: PEPTIDE1{[ac].K.W.K.Y.W.Y.[dM].[am]}$$$$V2.0
SMILES: CSCC[C@@H](NC(=O)[C@H](Cc1ccc(O)cc1)NC(=O)[C@H](Cc1c[nH]c2ccccc12)NC(=O)[C@H](Cc1ccc(O)cc1)NC(=O)[C@H](CCCCN)NC(=O)[C@H](Cc1c[nH]c2ccccc12)NC(=O)[C@H](CCCCN)NC(C)=O)C(N)=O
On to B13, for which the “EC50 for [Ca2+]” value in assay [1] was less than 0.01 µM; with FPR1, greater than 10 µM.

B14: peptide of SEQ ID NO 67 (peptide)
peptide: KMKYKPM
HELM: PEPTIDE1{[ac].K.M.K.Y.K.P.[dM].[am]}$$$$V2.0
SMILES: CSCC[C@H](NC(=O)[C@H](CCCCN)NC(C)=O)C(=O)N[C@@H](CCCCN)C(=O)N[C@@H](Cc1ccc(O)cc1)C(=O)N[C@@H](CCCCN)C(=O)N1CCC[C@H]1C(=O)N[C@H](CCSC)C(N)=O
Turning to B14, the results for the “EC50 for [Ca2+]” value (in assay [1]; with FPR1) were less than 0.01 µM and greater than 10 µM, respectively.

B15: peptide of SEQ ID NO 85 (peptide)
peptide: MRYWYM
HELM: PEPTIDE1{M.R.Y.W.Y.[dM].[am]}$$$$V2.0; N-terminus assumed
SMILES: CSCC[C@H](N)C(=O)N[C@@H](CCCNC(=N)N)C(=O)N[C@@H](Cc1ccc(O)cc1)C(=O)N[C@@H](Cc1c[nH]c2ccccc12)C(=O)N[C@@H](Cc1ccc(O)cc1)C(=O)N[C@H](CCSC)C(N)=O
As for B15, the “EC50 for [Ca2+]” value in assay [1] is less than 0.01 µM; with FPR1, greater than 10 µM.

B16: peptide of SEQ ID NO 123 (peptide)
peptide: RWRYYYM
HELM: PEPTIDE1{R.W.R.Y.Y.Y.[dM].[am]}$$$$V2.0; N-terminus assumed
SMILES: CSCC[C@@H](NC(=O)[C@H](Cc1ccc(O)cc1)NC(=O)[C@H](Cc1ccc(O)cc1)NC(=O)[C@H](Cc1ccc(O)cc1)NC(=O)[C@H](CCCNC(=N)N)NC(=O)[C@H](Cc1c[nH]c2ccccc12)NC(=O)[C@@H](N)CCCNC(=N)N)C(N)=O
As for B16, the “EC50 for [Ca2+]” value is less than 0.01 µM in assay [1] and greater than 10 µM with FPR1.

B17: peptide of SEQ ID NO 92 (peptide)
peptide: HMRYWYM
HELM: PEPTIDE1{[ac].H.M.R.Y.W.Y.[dM].[am]}$$$$V2.0
SMILES: CSCC[C@H](NC(=O)[C@H](Cc1c[nH]cn1)NC(C)=O)C(=O)N[C@@H](CCCNC(=N)N)C(=O)N[C@@H](Cc1ccc(O)cc1)C(=O)N[C@@H](Cc1c[nH]c2ccccc12)C(=O)N[C@@H](Cc1ccc(O)cc1)C(=O)N[C@H](CCSC)C(N)=O
For B17, the entries for the “EC50 for [Ca2+]” value (in assay [1]; with FPR1) were less than 0.01 µM and greater than 10 µM, respectively.

Values taken from US20250361268A1, “NOVEL ANTI-INFLAMMATORY PEPTIDE AND USE THEREOF” (NOVACELL TECHNOLOGY INC., priority 2022, published 2025).
